Ends that are not written are not given here.
B1: NanoLuc-MAGEA3 full length (natural protein)
chain: MPLEQRSQHCKPEEGLEARGEALGLVGAQAPATEEQEAASSSSTLVEVTLGEVPAAESPDPPQSPQGASSLPTTMNYPLWSQSYEDSSNQEEEGPSTFPDLESEFQAALSRKVAELVHFLLLKYRAREPVTKAEMLGSVVGNWQYFFPVIFSKASSSLQLVFGIELMEVDPIGHLYIFATCLGLSYDGLLGDNQIMPKAGLLIIVLAIIAREGDCAPEEKIWEELSVLEVFEGREDSILGDPKKLLTQHFVQENYLEYRQVPGSDPACYEFLWGPRALVETSYVKVLHHMVKISGGPHISYPPLHEWVLREGEE

What was measured:
HaloTag-DCAF12 wild type = HaloTag-DCAF12 wild type (human, UniProt Q5T6F0 1-453); test: FRET or BRET
Chain of HaloTag-DCAF12 wild type (Q5T6F0 whole entry): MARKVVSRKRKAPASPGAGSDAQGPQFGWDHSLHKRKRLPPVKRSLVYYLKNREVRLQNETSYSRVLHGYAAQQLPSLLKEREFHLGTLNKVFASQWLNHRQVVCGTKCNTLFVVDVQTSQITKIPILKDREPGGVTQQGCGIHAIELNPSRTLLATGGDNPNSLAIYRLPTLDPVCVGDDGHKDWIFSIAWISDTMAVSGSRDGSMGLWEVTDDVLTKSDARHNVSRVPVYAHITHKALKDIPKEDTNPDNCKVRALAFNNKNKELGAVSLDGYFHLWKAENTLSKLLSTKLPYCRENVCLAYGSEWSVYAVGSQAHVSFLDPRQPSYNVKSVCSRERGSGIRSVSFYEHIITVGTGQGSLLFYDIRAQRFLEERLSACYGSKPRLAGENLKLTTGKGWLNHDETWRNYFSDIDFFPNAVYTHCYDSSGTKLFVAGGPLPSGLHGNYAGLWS

DCAF12 (Δ1-78) [1] = molecular target: T1, DCAF12 (Δ1-78) (human, UniProt Q5T6F0 79-453); test: fluorescence polarisation
T1 sequence (Q5T6F0 79-453, stated change not applied): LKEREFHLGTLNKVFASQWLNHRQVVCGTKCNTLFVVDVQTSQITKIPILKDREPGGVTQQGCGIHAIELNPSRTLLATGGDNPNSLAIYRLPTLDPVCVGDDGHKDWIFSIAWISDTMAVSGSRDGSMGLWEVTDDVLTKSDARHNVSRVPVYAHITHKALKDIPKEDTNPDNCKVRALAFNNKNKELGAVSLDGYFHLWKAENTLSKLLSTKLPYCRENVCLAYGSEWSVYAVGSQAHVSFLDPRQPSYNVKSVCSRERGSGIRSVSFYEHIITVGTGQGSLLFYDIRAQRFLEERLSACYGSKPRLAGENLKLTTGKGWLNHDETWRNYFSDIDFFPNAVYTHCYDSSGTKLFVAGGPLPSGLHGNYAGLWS

[2] = molecular target: biotinylated DCAF12 (Δ1-78) (human, UniProt Q5T6F0 79-453, biotin); test: SPR
Chain of biotinylated DCAF12 (Δ1-78) (Q5T6F0 79-453, stated change not applied): as above

DCAF12 (Δ1-78) [3] = molecular target: T1, DCAF12 (Δ1-78); test: fluorescence polarisation; remark: listed apart in the source

Row | Binder | BRET signal, fold over the negative control (HaloTag-DCAF12 wild type) [fold] | binding result (DCAF12 (Δ1-78) [1]) | binding result [2] | Kd (DCAF12 (Δ1-78) [3]) [nM]
1 | B1 | 22 |  |  | 
2 | IRKPGESEE [unlabeled CCT5 C-terminal degron peptide] |  | binds | binds | 
3 | IRKPGESEE (also: FITC label, position not given here) [FITC-labeled CCT5 C-terminal degron peptide] |  |  |  | < 370
4 | LHEWVLREGEE (also: FITC label, position not given here) [FITC-labeled MAGEA3 C-terminal degron peptide] |  |  |  | < 370
5 | LHEWVLREGEE [unlabeled MAGEA3 C-terminal degron peptide] |  | binds | binds | 
